Results on 14 molecules are retold here after patent US20070243589A1 (Pfizer, published 2007).

In experiment [1] the target is T1, biotinylated IL-22 with an N-terminal His/FLAG tag (bio.IL-22H/F) (human, UniProt Q9GZX6 34-179, biotinylated (site not stated)).
T1 construct: not shown: N-terminal His/FLAG tag
T1 sequence: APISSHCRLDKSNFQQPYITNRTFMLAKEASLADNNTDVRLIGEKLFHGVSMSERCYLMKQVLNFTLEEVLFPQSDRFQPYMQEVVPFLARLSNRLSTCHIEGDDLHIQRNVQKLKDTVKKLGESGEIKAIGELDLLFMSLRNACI
Description: DELFIA competition assay: scFv titrated against bio.IL-22H/F binding to the captured IL-22 receptor complex. The protocol:
Microtiter plates were coated with an IL-22 receptor complex antibody (1 μg/ml in PBS), and incubated for 1.5 hours at room temperature. Plates were washed three times in PBST, and blocked for 1 hour at room temperature with 2% MPBS. After a further 3 washes, diluted cell conditioned medium containing an IL-22 receptor complex was added and incubated overnight at 4° C. Crude scFv supernatants were prepared as described above. The following day, 25 μl of diluted scFv sample and 25 μl of bio.IL-22H/F (6 ng/ml) were added to the washed plates, and incubated for 1.5 hours at room temperature. Plates were washed 3 times in PBST, then binding of bio.IL-22H/F to the IL-22 receptor complex was detected with Europium-Streptavidin and the DELFIA® reagent kit (PerkinElmer). Time Resolved Fluorescence was measured using a Victor 2™ Plate Reader (Perkin Elmer).
Purified scFv from positive clones identified from the screening were tested in the DELFIA® IL-22 receptor complex competition assay as described above. A titration of scFv concentrations was used in order to establish the clone potency as measured by IC₅₀ values in the assay. Fourteen optimized clones were designated 097D09, 062A09, 062G05, 087B03, 367D04, 368D04, 166B06, 166G05, 375G06, 376B10, 354A08, 355B06, 355E04, and 356A11.

The next experiment concerns the target T2, human IL-22 (human, UniProt Q9GZX6 34-179).
T2 sequence: T1 sequence
In words: cell-based or functional assay.

Another experiment has as its target T3, BSA (bovine, UniProt P02769).
T3 construct: background wells labelled BSA; also called bovine serum albumin
Description: ELISA: wells labelled BSA, IgG at 1 µg/ml, HRP anti-human IgG, A450. How it is done:
Cross species reactivity of germlined and non-germlined optimized antibodies were determined as follows: ELISA plates (Costar, Cat. #3590) were coated overnight with 1 μg/ml of rat, mouse, or human IL-22 or human IL-26 in PBS buffer. Plates were washed with PBST buffer (0.05% Tween20 in PBS) 3 times, then blocked with 1% BSA (Sigma A8918)/PBST for 1 hr at RT. Antibodies were added at 1 μg/ml, incubated 1 hr at 25° C. […] The plates were incubated for 1 hour at 25° C., then washed with PBST, and developed with TMB (KPL, Cat. #50-76-04). Reaction was stopped with 0.18 M H₂S0₄. Plates were read at OD 450 nm.

Substitutions are numbered along the chain they refer to.

T3 sequence (P02769 25-607 limits assumed): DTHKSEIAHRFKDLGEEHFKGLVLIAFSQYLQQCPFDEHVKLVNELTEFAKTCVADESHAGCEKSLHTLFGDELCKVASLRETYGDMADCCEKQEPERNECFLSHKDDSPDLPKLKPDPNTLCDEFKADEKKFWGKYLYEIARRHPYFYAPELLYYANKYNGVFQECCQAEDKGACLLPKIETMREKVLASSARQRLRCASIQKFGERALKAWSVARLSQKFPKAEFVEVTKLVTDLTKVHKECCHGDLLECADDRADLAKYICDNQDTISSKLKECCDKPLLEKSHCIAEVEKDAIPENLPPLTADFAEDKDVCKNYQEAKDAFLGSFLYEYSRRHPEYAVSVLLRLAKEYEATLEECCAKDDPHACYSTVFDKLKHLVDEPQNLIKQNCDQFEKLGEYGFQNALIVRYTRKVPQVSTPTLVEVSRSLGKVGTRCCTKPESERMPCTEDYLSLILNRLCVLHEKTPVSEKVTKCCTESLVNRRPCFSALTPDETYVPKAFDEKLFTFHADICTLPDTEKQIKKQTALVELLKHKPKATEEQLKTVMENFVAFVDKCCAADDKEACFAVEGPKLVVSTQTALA

B1: 356A11 scFv (non-germlined) (scFv)
scFv: QVQLVQSGAEVKKPGASVKVSCKASGYTFTNYYMHWVRQAPGQGLEWVGWINPYTGSAFYAQKFRGRVTMTRDTSINTAYMELSRLGSDDTAVYYCAREPEKFDSDDSDVWGRGTMVTVSGGGGSSGGGGSGGSGSAQAVLTPPSVSGAPGQRVTISCTGSSSNIGAGYGVHWYQQLPGTAPKLIIYGDSSRPSGVPDRFSGSKSGTSASLAITGLQAEDEADYYCQSYDNSLSGYVFGTGTQLTVLSA
notes: Optimized clone derived from GIL92
As usually defined, the IC50 is the concentration needed to halve the response being measured. Low values mean higher potency, high ones lower potency. B1 showed an IC50 in experiment [1] of 0.55 nM. For the same molecule, in the experiment with human IL-22, the “IC50 of scFv in BaF3-IL-22 proliferation assay” value (“IC50 of scFv” for short) is 0.124 nM.

B2: 354A08 scFv (non-germlined) (scFv)
scFv: QVQLVQSGAEKKPGASVKVSCKASGYTFTDYYMHWVRQAPGQGLEWVGWINPYTGGAFYAQKFRGRVTMTRDTSINTAYMELSRLGSDDTAVYYCAREPERFGDSTGQVWGRGTMVTVSSGGGGSGGGGSGGSRSAQAVLTQPSSVSGAPRQRVTISCTGSSSNIGAGYGVHWYQQLPGTAPKLLIYGNSNRPSGVPDRFSGSKSGTSASLAITGLQAEDEADYYCYHWDKEQSGYVFGTGTQLTVLSA
notes: as for B1
As for B2, the IC50 in experiment [1] worked out at 0.16 nM. In addition, in the experiment with human IL-22, the “IC50 of scFv” value worked out at 0.219 nM.

B3: 355B06 scFv (non-germlined) (scFv)
scFv: EVQLVQSGAEVKKPGASVKVSCQASGYTFTDYYMHWVRQAPGQGLEWVGWINPYTGSAFYAQKFRGRATMTRNTSINTAYMELSRLGSDDTAVYYCAREPEKFGESSGQLWGRGTMVTISSGGGGSGGGGSGGSGSAQAVLTQPSSVSGAPGQRVTISCTGSSSNIGPGYGVHWYQQLPGTAPKLLIYGDSNRPSGVPDRFSGSKSGTSASLAITGLQAEDEADYYCQSYDSGLSGYVFGTGTQLTVLSA
notes: as for B1
Consider B3, for which, in experiment [1], the IC50 was determined as 0.18 nM. In the experiment with human IL-22, the “IC50 of scFv” value worked out at 0.183 nM.

B4: 355E04 scFv (non-germlined) (scFv)
scFv: QVQLVQSGAEVKKPGASVKVSCKASGYTFTHYYMHWVRQAPGQGLEWVGWINPYTGGAFYAQKFQGRVTMTRDTSINTAYMELSRLGSDDTAVYYCAREPEKFDSPNAEIWGRGTMVTISSEGGGSGGGGSGGSGSAQAVLTQPSSVSGAPGQRVTISCTGSSSNIGAGYGVHWYQQLPGTAPKLLIYGNSNRPSGVPDRFSGSKSGTSASLAITGLQAEDEADYYCQSYDSSLSGYVFGTGTQLTVLSA
notes: as for B1
Consider B4, for which the 50% inhibitory concentration (IC50) in experiment [1] was 0.41 nM. For the same molecule, the “IC50 of scFv” value with human IL-22 worked out at 0.192 nM.

B5: 062G05 IgG (non-germlined) (antibody, V domains shown)
VH: QVQLVESGAEVKKPGASVKVSCKASGYTFTSYGISWVRQAPGQGLEWMGWISAYTGNTNYAQKFQGRVTMTTDTSTSTAYMELRSLRSDDTAVYYCARDRGYYDAFDIWGQGTLVTVSS
VL: DIQMTQSPSTLSASIGDRVTITCRASEGIYHWLAWYQQKPGKAPKLLIYKASSLASGAPSRFSGSGFGTDFTLTISSLQPDDFATYYCQQMGEWKAAFGGGTKLEIKR
notes: IgG
Take B5: in the experiment with BSA, the binding result was “no binding (tested: 1 µg/ml (single concentration))”. Also, the “IC50 of IgG in BaF3-IL-22 proliferation assay” value with human IL-22 amounted to 0.112 nM.

B6: 375G06 scFv (non-germlined) (scFv)
scFv: EVQLVQSGAEVKKPGASVKVSCQASGYTFSDYYIHWVRQTPGQGFEWMGWVNPDTGGTRYAQKFQGWVTMTRDMSNTTAYMELPRLRDDDTAVYYCARDLTGYDYYDRWGQGTLVTVSSGGGGSGGGGSGGGGGGSGGGGGGSGGGGSAQSVLTQPPSMSVAPGKTATITCGGNNFRNKRVHWYQQRPGQAPVLVIYYDSDRPSGIPERFSGSRSGNTATLTISRVEAGDEADFYCQVWDFLADEAMFGGGTKLTVLGAAAH
notes: Optimized clone derived from GIL68
B6 returned an IC50 in experiment [1] of 0.44 nM. Further, the “IC50 of scFv” value with human IL-22 turned out to be 0.118 nM.

B7: 097D09 scFv (non-germlined) (scFv)
scFv: EVQLVESGGGLVTPGGSLRLSCAASGFTFSDYYMSWVRQAPGRGLEWVSAISGSGGSTYYADSVKGRITISRDNAKNSLYLQMSSLRSEDTAVYYCARGLWVWDPLDYWGRGTLVTVSSGGGGSGGGGSGGGGSDIQMTQSPSTLSASIGDRVTITCRASEGIYHWLAWYQQKPGKAPKLLIYKASSLASGAPSRFSGSGFGTDFTLTISSLQPDDFATYYCQQYSEFAWTFGGGTKLEIKRAAAH
notes: Optimized clone derived from GIL01
B7 came in with an IC50 in experiment [1] of 0.39 nM. Further, in the experiment with human IL-22, the “IC50 of scFv” value worked out at 0.298 nM.

B8: 087B03 scFv (non-germlined) (scFv)
scFv: EVQLVESGGGVVRPGGSLRLSCAASGFTFDDYGMNWVRQAPGKGLEWVSGVNWNGGTRDYAASVKGRFTISRDNAKNSLYLQMNSLRAEDTALYYCARGWYSGAAWNMGYWGRGTLVTVSSGGGGSGGGGSGGGGSAQAVLTQPSSVSGSPGQSITISCTGASGDVGAYNFVSWYQQHPGKTPKLIIYDVNKRPSGVSNRFSGSKSSNTASLTISGLQAEDESDYYCSSYTSTFSVVFGGGTKVTVLGAAAH
notes: Optimized clone derived from GIL60
Regarding B8, the IC50 in experiment [1] amounted to 0.12 nM. Besides, the “IC50 of scFv” value with human IL-22 came out at 0.212 nM.

B9: 367D04 scFv (non-germlined) (scFv)
scFv: EVQLVESGGGVVRPGGSLRLSCAASGFTFDDYGMNWVRQAPGKGLEWVSGVNWNGGTRDYAASVKGRFTISRDNAKNSLYLQMNSLRAEDTALYYCARGWYSGSPWSLGHWGRGTLVTVSSGGGGSGGGGSGGSGGGSGGSGGGSSGGGSGGGGSAQAVLTQPSSVSGSPGQSVTISCTGASGDVGAYNFVSWYQQHPGKTPKLIIYDVNKRPSGVSNRFSGSKSGNTASLTISRLQAEDESDYYCSSYTSRYTTEFGGGTKVTVLGAAAH
notes: as for B8
With B9, in experiment [1], the IC50 stood at 0.33 nM. Besides, in the experiment with human IL-22, the “IC50 of scFv” value turned out to be 0.16 nM.

B10: 166G05 scFv (non-germlined) (scFv)
scFv: EVQLVQSGAEVKKPGASVKVSCQASGYTFSDYYIHWVRQTPGQGFEWMGWVNPDTGGTRYAQKFQGWVTMTRDMSNTTAYMELPRLRDDDTAVYYCARDLTGFDPFDIWGQGTLVTVSSGGGGSGGGGSGGGGSAQSVLTQPPSVSVAPGKTATITCGGNNFRNKRVHWYQQRPGQAPVLVIYYDSDRPSGIPERFSGSRSGNTATLTISRVEAGDEADFYCQVWDFLTDSGSFGGGTKLTVLGAAAH
notes: as for B6
In experiment [1], B10 returned an IC50 of 0.19 nM. Further, in the experiment with human IL-22, the “IC50 of scFv” value is 0.204 nM.

B11: 368D04 scFv (non-germlined) (scFv)
scFv: EVQLVESGGGVVRPGGSLRLSCAASGFTFDDYGMNWVRQAPGKGLEWVSGVNWNGGTRDYAASVKGRFTISRDNAKNSLYLQMNSLRAEDTALYYCARGWYSGAAWNMGYWGRGTLVTVSSGGGGSGGGGSGGSGGGSGGGGGGSGGGGSAQAVLTQPSSVSGSPGQSITISCTGASGDVGAYNFVSWYQQHPGKTPKLIIYDVNKRPSGVSNRFSGSKSGNTASLTISGLQAEDESDYYCASLVSDFSVVFGGGTKVTVLGAAAH
notes: as for B8
B11 registered an IC50 in experiment [1] of 0.32 nM. In addition, the “IC50 of scFv” value with human IL-22 is 0.186 nM.

B12: 376B10 scFv (non-germlined) (scFv)
scFv: EVQLVQSGAEVKKPGASVKVSCQASGYTFSDYYIHWVRQTPGQGFEWMGWVNPDTGGTRYAQKFQGWVTMTRDMSNTTAYMELPGLRDDDTAVYYCARDLTGYDQYTAWGQGTLVTVSSGGGGSGGGGSGGGGSAQSVLTQPPSVSVAPGKTATITCGGNNFRNKRVHWYQQRPGQAPVLVIYYDSDRPSGIPERFSGSRSGNTATLTISRVEAGDEADFYCSTFDPFTDRPLFGGGTKLTVLGAAAH
notes: as for B6
In experiment [1], B12 returned an IC50 of 0.79 nM. Also, the “IC50 of scFv” value in the experiment with human IL-22 was determined as 0.104 nM.

B13: 062G05 scFv (non-germlined) (scFv)
scFv: QVQLVESGAEVKKPGASVKVSCKASGYTFTSYGISWVRQAPGQGLEWMGWISAYTGNTNYAQKFQGRVTMTTDTSTSTAYMELRSLRSDDTAVYYCARDRGYYDAFDIWGQGTLVTVSSGGGGSGGGGSGGGGSDIQMTQSPSTLSASIGDRVTITCRASEGIYHWLAWYQQKPGKAPKLLIYKASSLASGAPSRFSGSGFGTDFTLTISSLQPDDFATYYCQQMGEWKAAFGGGTKLEIKRAAAH
notes: Optimized clone derived from GIL16
In experiment [1], B13 displayed an IC50 of 0.1 nM. For the same molecule, in the experiment with human IL-22, the “IC50 of scFv” value was found to be 0.182 nM.

B14: 062A09 scFv (non-germlined) (scFv)
scFv: B13 scFv with I51V, S85G, F106Y, W228Y, K229N, A231T, F232I
notes: as for B13
For the molecule B14, the half-inhibitory concentration (IC50) in experiment [1] stood at 0.13 nM. The “IC50 of scFv” value with human IL-22 is 0.267 nM.
